Results on 30 molecules are retold here after patent US20130225506A1 (POLYPHOR, published 2013).

Square brackets hold non-standard residues; d marks the D form. Primed or numbered codes have the meaning given here. Phe(4-CF3) = N[C@@H](Cc1ccc(C(F)(F)F)cc1)C(=O)O; dPro(cis-4-NH2) = N[C@H]1CN[C@@H](C(=O)O)C1; 1Nal = N[C@@H](Cc1cccc2ccccc12)C(=O)O; 2Nal = N[C@@H](Cc1ccc2ccccc2c1)C(=O)O; Pro(3S-OH) = O=C(O)[C@H]1NCC[C@@H]1O; hArg = N=C(N)NCCCC[C@H](N)C(=O)O; Tic = O=C(O)[C@@H]1Cc2ccccc2CN1; dHyp = O=C(O)[C@H]1C[C@H](O)CN1; dTic = O=C(O)[C@H]1Cc2ccccc2CN1; Cha = N[C@@H](CC1CCCCC1)C(=O)O; Chg = N[C@H](C(=O)O)C1CCCCC1; Orn(A41) = not defined here; Orn(A56) = not defined here; Orn(Ar2) = not defined here; Orn(Ar4) = not defined here; Orn(Ar7) = not defined here; dOrn = NCCC[C@@H](N)C(=O)O; Nle = CCCC[C@H](N)C(=O)O; Orn = NCCC[C@H](N)C(=O)O; dPip′ = not defined here; A56 = not defined here; Abu = CC[C@H](N)C(=O)O; Ar7 = not defined here; Tiq = not defined here

In this experiment the target is chemokine receptor CXCR7 (UniProt P25106 1-362, limits assumed). Nature of the experiment: cell-based or functional assay.
chemokine receptor CXCR7, sequence (P25106 whole entry): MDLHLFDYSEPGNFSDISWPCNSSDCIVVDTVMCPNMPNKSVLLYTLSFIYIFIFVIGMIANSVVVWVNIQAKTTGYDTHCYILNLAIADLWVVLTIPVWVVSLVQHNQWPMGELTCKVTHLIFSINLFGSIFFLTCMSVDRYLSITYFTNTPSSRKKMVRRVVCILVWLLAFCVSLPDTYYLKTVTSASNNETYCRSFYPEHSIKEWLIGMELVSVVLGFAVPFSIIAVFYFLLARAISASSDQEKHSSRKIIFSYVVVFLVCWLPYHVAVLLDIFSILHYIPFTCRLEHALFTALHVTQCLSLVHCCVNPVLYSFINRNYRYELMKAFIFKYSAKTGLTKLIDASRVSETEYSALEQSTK

B1: cyclo(-Ile-^DThr-Arg-Trp-^DPro-Thr-) (peptide)
peptide: cyclo(I[dT]RW[dP]T)
SMILES: CC[C@H](C)[C@@H]1NC(=O)[C@H]([C@@H](C)O)NC(=O)[C@H]2CCCN2C(=O)[C@H](Cc2c[nH]c3ccccc23)NC(=O)[C@H](CCCNC(=N)N)NC(=O)[C@@H]([C@H](C)O)NC1=O
Turning to B1, the “β-Arrestin EC50” value was 53.2 nM.

B2: cyclo(-Trp-^DPhe-Trp-Orn(A56)-^DPro((4R)NH2)-Tiq-) (peptide)
peptide: cyclo(W[dF]W[Orn](A56)[dPro(cis-4-NH2)][Tiq])
modifications: reading uncertain; also: printed as cyclo(-Trp-^DPhe-Trp-Orn(A56)-^DPro((4R)NH2)-Tiq-)
As for B2, the “β-Arrestin EC50” value worked out at 46.9 nM.
With cyclo(I[dR][Orn(A56)]W[dP]T) (reading uncertain; also: printed as cyclo(-Ile-^DArg-Orn(A56)-Trp-^DPro-Thr-)) [cyclo(-Ile-^DArg-Orn(A56)-Trp-^DPro-Thr-)] the figure was 3.2 nM.

B3: cyclo(-Trp-^DPhe-Trp-Orn(Ar7)-^DPro((4R)NH2)-Tic-) (peptide)
peptide: cyclo(W[dF]W[Orn](Ar7)[dPro(cis-4-NH2)][Tic])
modifications: reading uncertain; also: printed as cyclo(-Trp-^DPhe-Trp-Orn(Ar7)-^DPro((4R)NH2)-Tic-)
For the molecule B3, the “β-Arrestin EC50” value came to 145 nM.

B4: cyclo(-Ile-^DArg-Arg-Phe-^DPro-Thr-) (peptide)
peptide: cyclo(I[dR]RF[dP]T)
SMILES: CC[C@H](C)[C@@H]1NC(=O)[C@H]([C@@H](C)O)NC(=O)[C@H]2CCCN2C(=O)[C@H](Cc2ccccc2)NC(=O)[C@H](CCCNC(=N)N)NC(=O)[C@@H](CCCNC(=N)N)NC1=O
For B4, the “β-Arrestin EC50” value stood at 46.4 nM.

B5: cyclo(-Ile-^DArg-Orn-Trp-^DPro-Thr-) (peptide)
peptide: cyclo(I[dR][Orn]W[dP]T)
SMILES: CC[C@H](C)[C@@H]1NC(=O)[C@H]([C@@H](C)O)NC(=O)[C@H]2CCCN2C(=O)[C@H](Cc2c[nH]c3ccccc23)NC(=O)[C@H](CCCN)NC(=O)[C@@H](CCCNC(=N)N)NC1=O
In the case of B5, the “β-Arrestin EC50” value worked out at 816 nM.

B6: cyclo(-Trp-^DPhe-Trp-Orn(A56)-^DPip-Pro((3S)OH)-) (peptide)
peptide: cyclo(W[dF]W[Orn](A56)[dPip′][Pro(3S-OH)])
modifications: reading uncertain; also: printed as cyclo(-Trp-^DPhe-Trp-Orn(A56)-^DPip-Pro((3S)OH)-)
Turning to B6, the “β-Arrestin EC50” value amounted to 14 nM.
On to cyclo(I[dR][Orn(Ar4)]W[dP]T) (reading uncertain; also: printed as cyclo(-Ile-^DArg-Orn(Ar4)-Trp-^DPro-Thr-)) [cyclo(-Ile-^DArg-Orn(Ar4)-Trp-^DPro-Thr-)], for which the “β-Arrestin EC50” value was 4.6 nM.

B7: cyclo(-Ile-^DArg-Arg-Trp-^DTic-Thr-) (peptide)
peptide: cyclo(I[dR]RW[dTic]T)
SMILES: CC[C@H](C)[C@@H]1NC(=O)[C@H]([C@@H](C)O)NC(=O)[C@H]2Cc3ccccc3CN2C(=O)[C@H](Cc2c[nH]c3ccccc23)NC(=O)[C@H](CCCNC(=N)N)NC(=O)[C@@H](CCCNC(=N)N)NC1=O
On to B7, for which the “β-Arrestin EC50” value came to 14.2 nM.

B8: cyclo(-Ile-^DArg-Arg-2Nal-^DPro-Pro((3S)OH)-) (peptide)
peptide: cyclo(I[dR]R[2Nal][dP][Pro(3S-OH)])
SMILES: CC[C@H](C)[C@@H]1NC(=O)[C@@H]2[C@@H](O)CCN2C(=O)[C@H]2CCCN2C(=O)[C@H](Cc2ccc3ccccc3c2)NC(=O)[C@H](CCCNC(=N)N)NC(=O)[C@@H](CCCNC(=N)N)NC1=O
Regarding B8, the “β-Arrestin EC50” value is 76.8 nM.

B9: cyclo(-Ile-^DOrn-Arg-Trp-^DPro-Thr-) (peptide)
peptide: cyclo(I[dOrn]RW[dP]T)
SMILES: CC[C@H](C)[C@@H]1NC(=O)[C@H]([C@@H](C)O)NC(=O)[C@H]2CCCN2C(=O)[C@H](Cc2c[nH]c3ccccc23)NC(=O)[C@H](CCCNC(=N)N)NC(=O)[C@@H](CCCN)NC1=O
B9: the “β-Arrestin EC50” value stood at 23.3 nM.

B10: cyclo(-Val-^DArg-Arg-Trp-^DPro-Thr-) (peptide)
peptide: cyclo(V[dR]RW[dP]T)
SMILES: CC(C)[C@@H]1NC(=O)[C@H]([C@@H](C)O)NC(=O)[C@H]2CCCN2C(=O)[C@H](Cc2c[nH]c3ccccc23)NC(=O)[C@H](CCCNC(=N)N)NC(=O)[C@@H](CCCNC(=N)N)NC1=O
For B10, the “β-Arrestin EC50” value amounted to 271 nM.
Then cyclo(I[dR][Orn(Ar2)]W[dP]T) (reading uncertain; also: printed as cyclo(-Ile-^DArg-Orn(Ar2)-Trp-^DPro-Thr-)) [cyclo(-Ile-^DArg-Orn(Ar2)-Trp-^DPro-Thr-)], with 453 nM.

B11: cyclo(-Ile-^DArg-Arg-Trp-^DPro((4R)NH2)-Thr-) (peptide)
peptide: cyclo(I[dR]RW[dPro(cis-4-NH2)]T)
SMILES: CC[C@H](C)[C@@H]1NC(=O)[C@H]([C@@H](C)O)NC(=O)[C@H]2C[C@@H](N)CN2C(=O)[C@H](Cc2c[nH]c3ccccc23)NC(=O)[C@H](CCCNC(=N)N)NC(=O)[C@@H](CCCNC(=N)N)NC1=O
For B11, the “β-Arrestin EC50” value amounted to 948 nM.
Then cyclo([Ala(1Pyraz)][dF]WR[dPro(cis-4-NH2)][Tic]) [cyclo(-Ala(1Pyraz)-^DPhe-Trp-Arg-^DPro((4R)NH2)-Tic-)], with 29.9 nM.

B12: cyclo(-Chg-^DArg-Arg-Trp-^DPro-Thr-) (peptide)
peptide: cyclo([Chg][dR]RW[dP]T)
SMILES: C[C@@H](O)[C@@H]1NC(=O)[C@H]2CCCN2C(=O)[C@H](Cc2c[nH]c3ccccc23)NC(=O)[C@H](CCCNC(=N)N)NC(=O)[C@@H](CCCNC(=N)N)NC(=O)[C@H](C2CCCCC2)NC1=O
As to B12, the “β-Arrestin EC50” value was 6.7 nM.

B13: cyclo(-1Nal-^DArg-Arg-Trp-^DPro-Pro((3S)OH)-) (peptide)
peptide: cyclo([1Nal][dR]RW[dP][Pro(3S-OH)])
SMILES: N=C(N)NCCC[C@@H]1NC(=O)[C@@H](CCCNC(=N)N)NC(=O)[C@H](Cc2cccc3ccccc23)NC(=O)[C@@H]2[C@@H](O)CCN2C(=O)[C@H]2CCCN2C(=O)[C@H](Cc2c[nH]c3ccccc23)NC1=O
As for B13, the “β-Arrestin EC50” value worked out at 13.7 nM.

B14: cyclo(-Orn(Ar2)-^DPhe-Trp-Arg-^DPro((4R)NH2)-Tic-) (peptide)
peptide: cyclo([Orn(Ar2)][dF]WR[dPro(cis-4-NH2)][Tic])
modifications: reading uncertain; also: printed as cyclo(-Orn(Ar2)-^DPhe-Trp-Arg-^DPro((4R)NH2)-Tic-)
Regarding B14, the “β-Arrestin EC50” value turned out to be 209 nM.

B15: cyclo(-Orn(A56)-^DPhe-Trp-Arg-^DPro((4R)NH2)-Tic-) (peptide)
peptide: cyclo([Orn(A56)][dF]WR[dPro(cis-4-NH2)][Tic])
modifications: reading uncertain; also: printed as cyclo(-Orn(A56)-^DPhe-Trp-Arg-^DPro((4R)NH2)-Tic-)
Consider B15, for which the “β-Arrestin EC50” value was found to be 181 nM.
For the molecule cyclo(I[dR][Orn(Ar7)]W[dP]T) (reading uncertain; also: printed as cyclo(-Ile-^DArg-Orn(Ar7)-Trp-^DPro-Thr-)) [cyclo(-Ile-^DArg-Orn(Ar7)-Trp-^DPro-Thr-)], the “β-Arrestin EC50” value was determined as 336 nM.
Then cyclo(I[dR]RW[dPip′][Pro(3S-OH)]) [cyclo(-Ile-^DArg-Arg-Trp-^DPip-Pro((3S)OH)-)], with 8.2 nM.

B16: cyclo(-Leu-^DArg-Arg-Trp-^DPro-Thr-) (peptide)
peptide: cyclo(L[dR]RW[dP]T)
SMILES: CC(C)C[C@@H]1NC(=O)[C@H]([C@@H](C)O)NC(=O)[C@H]2CCCN2C(=O)[C@H](Cc2c[nH]c3ccccc23)NC(=O)[C@H](CCCNC(=N)N)NC(=O)[C@@H](CCCNC(=N)N)NC1=O
As to B16, the “β-Arrestin EC50” value was 5.3 nM.

B17: cyclo(-Ile-^DArg-Arg-Phe(4CF3)-^DPro-Thr-) (peptide)
peptide: cyclo(I[dR]R[Phe(4-CF3)][dP]T)
SMILES: CC[C@H](C)[C@@H]1NC(=O)[C@H]([C@@H](C)O)NC(=O)[C@H]2CCCN2C(=O)[C@H](Cc2ccc(C(F)(F)F)cc2)NC(=O)[C@H](CCCNC(=N)N)NC(=O)[C@@H](CCCNC(=N)N)NC1=O
Turning to B17, the “β-Arrestin EC50” value amounted to 4.5 nM.
Take cyclo(I[dR]RW[dHyp]T) (not fully specified) [cyclo(-Ile-^DArg-Arg-Trp-^DPro((4S)OH)-Thr-)]: the “β-Arrestin EC50” value was found to be 632 nM.
For cyclo(I[dR][Orn(A41)]W[dP]T) (reading uncertain; also: printed as cyclo(-Ile-^DArg-Orn(A41)-Trp-^DPro-Thr-)) [cyclo(-Ile-^DArg-Orn(A41)-Trp-^DPro-Thr-)], the “β-Arrestin EC50” value was determined as 518 nM.
For cyclo([Ala(Tet)][dF]WR[dPro(cis-4-NH2)][Tic]) [cyclo(-Ala(Tet)-^DPhe-Trp-Arg-^DPro((4R)NH2)-Tic-)], the “β-Arrestin EC50” value turned out to be 28.1 nM.

B18: cyclo(-Cha-^DArg-Arg-Trp-^DPro-Thr-) (peptide)
peptide: cyclo([Cha][dR]RW[dP]T)
SMILES: C[C@@H](O)[C@@H]1NC(=O)[C@H]2CCCN2C(=O)[C@H](Cc2c[nH]c3ccccc23)NC(=O)[C@H](CCCNC(=N)N)NC(=O)[C@@H](CCCNC(=N)N)NC(=O)[C@H](CC2CCCCC2)NC1=O
As for B18, the “β-Arrestin EC50” value was 37.7 nM.

B19: cyclo(-Nle-^DArg-Arg-Trp-^DPro-Thr-) (peptide)
peptide: cyclo([Nle][dR]RW[dP]T)
SMILES: CCCC[C@@H]1NC(=O)[C@H]([C@@H](C)O)NC(=O)[C@H]2CCCN2C(=O)[C@H](Cc2c[nH]c3ccccc23)NC(=O)[C@H](CCCNC(=N)N)NC(=O)[C@@H](CCCNC(=N)N)NC1=O
As for B19, the “β-Arrestin EC50” value came out at 2.8 nM.

B20: cyclo(-Abu-^DArg-Arg-Trp-^DPro-Thr-) (peptide)
peptide: cyclo([Abu][dR]RW[dP]T)
SMILES: CC[C@@H]1NC(=O)[C@H]([C@@H](C)O)NC(=O)[C@H]2CCCN2C(=O)[C@H](Cc2c[nH]c3ccccc23)NC(=O)[C@H](CCCNC(=N)N)NC(=O)[C@@H](CCCNC(=N)N)NC1=O
With B20, the “β-Arrestin EC50” value stood at 330 nM.

B21: cyclo(-Ile-^DArg-hArg-Trp-^DPro-Thr-) (peptide)
peptide: cyclo(I[dR][hArg]W[dP]T)
SMILES: CC[C@H](C)[C@@H]1NC(=O)[C@H]([C@@H](C)O)NC(=O)[C@H]2CCCN2C(=O)[C@H](Cc2c[nH]c3ccccc23)NC(=O)[C@H](CCCCNC(=N)N)NC(=O)[C@@H](CCCNC(=N)N)NC1=O
As to B21, the “β-Arrestin EC50” value came to 11 nM.
